{
  "source": "patent US20090131638A1",
  "about": "(Eli Lilly, published 2009)",
  "key": {"[1]": {"molecular_target": "T1, human mature myostatin (dimeric form) (human, UniProt O14793 267-375)", "T1 sequence": "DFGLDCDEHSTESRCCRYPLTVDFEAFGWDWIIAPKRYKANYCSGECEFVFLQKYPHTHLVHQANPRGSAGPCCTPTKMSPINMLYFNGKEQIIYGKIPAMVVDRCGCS", "experiment": "cell-based or functional assay"}, "[2]": {"molecular_target": "T2, recombinant human GDF-11 (human, UniProt O95390 299-407)", "T2 sequence (looked up)": "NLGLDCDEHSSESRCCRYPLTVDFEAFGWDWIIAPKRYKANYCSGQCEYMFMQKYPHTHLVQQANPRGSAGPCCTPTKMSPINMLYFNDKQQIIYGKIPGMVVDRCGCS", "experiment": "cell-based or functional assay"}, "[3]": {"molecular_target": "T1, human mature myostatin (dimeric form)", "experiment": "KINEXA, calculated as KD x kon", "description": "(§1) Binding affinity measurements for full-length monoclonal antibodies of the invention are determined using a Sapidyne KINEXA assay. NHS-activated fast-flow sepharose beads (GE Healthcare) are pre-coated with […] and blocked with 10 mg/ml BSA in 1 M Tris-HCl, pH 8.0. Then 2 pM, 4 pM, 40 pM of an antibody of the invention (e.g., 3-74/C1E4) is incubated with various concentration (e.g., 2.4 pM to 10 nM, serial dilutions) of myostatin in running buffer (PBS, 0.005% (v/v) Tween-20 and 1 mg/ml ovalbumin) for 10 hours at room temperature. […] The amount of bead-bound antibody is then quantified by passing a solution of fluorescent (Cy5) labeled goat ant-human Fc antibody (Jackson Immuno Research) diluted 1:4000 in running buffer over the beads. The measured fluorescence signal is proportional to the concentration of free antibody at equilibrium. Each concentration of myostatin is measured in duplicate. […]\n(§2) The association rate constant (kₒₙ) for GDF-8 binding is also determined using a Sapidyne KINEXA assay. […] The dissociation rate constant (koff) is calculated using the expression koff=KD×kₒₙ. Full-length monoclonal antibody 3-74/C1E4 (operably linked to an IgG₄ Fc region) was measured using the described assay, the results obtained are listed below in Table 3."}, "[4]": {"molecular_target": "T1, human mature myostatin (dimeric form)", "experiment": "KINEXA kinetic assay, 2 pM antibody mixed with 20 pM GDF-8", "description": "as §1, §2"}, "[5]": {"molecular_target": "T1, human mature myostatin (dimeric form)", "experiment": "KINEXA equilibrium assay, antibody and myostatin in solution, room temperature", "description": "Binding affinity measurements for full-length monoclonal antibodies of the invention are determined using a Sapidyne KINEXA assay. NHS-activated fast-flow sepharose beads (GE Healthcare) are pre-coated with […] and blocked with 10 mg/ml BSA in 1 M Tris-HCl, pH 8.0. Then 2 pM, 4 pM, 40 pM of an antibody of the invention (e.g., 3-74/C1E4) is incubated with various concentration (e.g., 2.4 pM to 10 nM, serial dilutions) of myostatin in running buffer (PBS, 0.005% (v/v) Tween-20 and 1 mg/ml ovalbumin) for 10 hours at room temperature. To determine the free antibody present at equilibrium, each sample is passed through the myostatin-coated beads. The amount of bead-bound antibody is then quantified by passing a solution of fluorescent (Cy5) labeled goat ant-human Fc antibody (Jackson Immuno Research) diluted 1:4000 in running buffer over the beads. The measured fluorescence signal is proportional to the concentration of free antibody at equilibrium. Each concentration of myostatin is measured in duplicate. The equilibrium dissociation constant (KD) is obtained from non-linear regression of the competition curves using a multiple-curve, one-site homogeneous binding model (KINEXA software)."}},
  "data": [
    {"binder": "Fab 3-74/C1E4 (Fab, V domains shown) VH: EVQLVESGGGLVQPGGSLRLSCAASGLTFSRYPMSWVRQAPGKGLEWVSAITSSGGSTYYSDTVKGRFTISRDNAKNTLYLQMNSLRAEDTAVYYCARLPDYWGQGTLVTVSS VL: EIVLTQSPGTLSLSPGERATLSCRASSSVSSSYLHWYAAKPGQAPRLLIYSTSNLVAGIPDRFSGSGSGTDFTLTISRLEPEDFAVYYCQHYSGYHFTFGGGTKVEIK", "values": [
      {"measurement": "IC50 GDF8 (myostatin/SBE luciferase reporter assay, 293E cells)", "setting": "[1]", "result": 1, "unit": "nM"},
      {"measurement": "IC50 GDF11 (GDF-11/SBE luciferase reporter assay, 293E cells)", "setting": "[2]", "result": 4, "unit": "nM"}
    ]},
    {"binder": "Full-length monoclonal antibody 3-74/C1E4 (operably linked to an IgG4 Fc region) (antibody, V domains shown, also called Mab 3-74/C1E4) VH: EVQLVESGGGLVQPGGSLRLSCAASGLTFSRYPMSWVRQAPGKGLEWVSAITSSGGSTYYSDTVKGRFTISRDNAKNTLYLQMNSLRAEDTAVYYCARLPDYWGQGTLVTVSS VL: EIVLTQSPGTLSLSPGERATLSCRASSSVSSSYLHWYAAKPGQAPRLLIYSTSNLVAGIPDRFSGSGSGTDFTLTISRLEPEDFAVYYCQHYSGYHFTFGGGTKVEIK", "values": [
      {"measurement": "koff", "setting": "[3]", "result": "2.08e-06", "unit": "s⁻¹"},
      {"measurement": "kon", "setting": "[4]", "result": "1.49e+06", "unit": "M⁻¹ s⁻¹"},
      {"measurement": "Kd", "setting": "[5]", "result": 1.39, "unit": "pM"}
    ]}
  ]
}
